{
  "source": "paper PMC10873877",
  "target": "His-AvrXa27 (Xanthomonas oryzae pv. oryzae, UniProt Q4QS99 1-1136)",
  "test": "EMSA; […]; buffer, […], pH and temperature not stated",
  "details": "protein: recombinant; tags: His (pET-30a); label: Cy5; blunt",
  "data": [
    {"binder": "Xa13p-14 (dsDNA) DNA 1: ATCTCCCCCTACTCTACAT DNA 2: ATGTAGAGTAGGGGGAGAT", "values": [
      {"measurement": "binding result", "value": "no binding"}
    ]}
  ]
}
